2 molecules from patent US20140112930A1 (published 2014) can be followed below.

The target of experiment [1] is T1, Dimeric Mouse Ang-2FD conjugated to human IgG1 (mouse (Mus musculus); human).
T1 construct: also called Mouse Ang-2FD-hFc
Kind of experiment: SPR, captured Ab, 25°C. As for the experimental part:
(§1) Each selected antibody or control construct was captured at a flow rate of 40 μL/min for 1 minute on a goat anti-human kappa polyclonal antibody surface created through direct chemical coupling to a BIACORE™ chip to form a captured antibody surface.
(In general: Surface plasmon resonance follows binding to a sensor surface in real time, without labels.)

Experiment [2] addresses T2, Dimeric Monkey Ang-2FD conjugated to human IgG1 (monkey (Macca fascicularis); human).
T2 construct: also called Monkey Ang-2FD-hFc
Kind of experiment: SPR, captured Ab, 25°C. On the procedure: as §1

Experiment [3] deals with T3, Dimeric Human Ang-2FD-mFc (human, UniProt O15123 282-496).
T3 construct: also called hAng-2FD-mFc; hAng2-FD-mFc; not shown: mouse Fc (mFc)
T3 sequence: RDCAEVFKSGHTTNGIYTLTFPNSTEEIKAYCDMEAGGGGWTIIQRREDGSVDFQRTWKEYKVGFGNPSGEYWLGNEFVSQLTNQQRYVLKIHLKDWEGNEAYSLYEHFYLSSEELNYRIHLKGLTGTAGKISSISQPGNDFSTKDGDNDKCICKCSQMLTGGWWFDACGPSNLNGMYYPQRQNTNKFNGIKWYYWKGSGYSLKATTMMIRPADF
Kind of experiment: SPR, captured Ab, 25°C. As for the experimental part: as §1

For experiment [4], the target named is T4, Full-length wild-type human Ang-1 (hAng-1-WT) (human, UniProt Q15389 20-498, limits assumed).
T4 construct: also called recombinant human Ang-1 (R&D Systems)
T4 sequence (looked up): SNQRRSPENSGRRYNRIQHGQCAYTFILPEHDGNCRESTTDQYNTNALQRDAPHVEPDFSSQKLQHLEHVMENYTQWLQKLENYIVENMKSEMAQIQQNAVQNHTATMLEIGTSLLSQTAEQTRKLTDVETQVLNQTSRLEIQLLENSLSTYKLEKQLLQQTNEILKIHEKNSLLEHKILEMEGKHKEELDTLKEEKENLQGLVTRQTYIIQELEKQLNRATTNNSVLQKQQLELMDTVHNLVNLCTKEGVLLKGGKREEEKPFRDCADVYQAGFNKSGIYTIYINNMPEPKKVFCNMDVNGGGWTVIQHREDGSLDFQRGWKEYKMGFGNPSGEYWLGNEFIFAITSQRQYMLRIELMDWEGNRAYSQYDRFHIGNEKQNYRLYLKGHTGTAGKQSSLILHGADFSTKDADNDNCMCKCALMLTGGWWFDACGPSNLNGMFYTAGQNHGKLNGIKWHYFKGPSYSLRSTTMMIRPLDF
Kind of experiment: SPR, captured Ab, 37°C. On the procedure: (§2) Each selected antibody or control construct was captured at a flow rate of 40 μL/min for 1 minute on a goat anti-human IgG polyclonal antibody surface created through direct chemical coupling to a BIACORE™ chip to form a captured antibody surface.

Experiment [5] has as its target T5, wild-type human Ang-2 (hAng-2-WT) (human, UniProt O15123 19-496).
T5 construct: called full-length wild-type; also called Full-length wild-type human Ang-2
T5 sequence: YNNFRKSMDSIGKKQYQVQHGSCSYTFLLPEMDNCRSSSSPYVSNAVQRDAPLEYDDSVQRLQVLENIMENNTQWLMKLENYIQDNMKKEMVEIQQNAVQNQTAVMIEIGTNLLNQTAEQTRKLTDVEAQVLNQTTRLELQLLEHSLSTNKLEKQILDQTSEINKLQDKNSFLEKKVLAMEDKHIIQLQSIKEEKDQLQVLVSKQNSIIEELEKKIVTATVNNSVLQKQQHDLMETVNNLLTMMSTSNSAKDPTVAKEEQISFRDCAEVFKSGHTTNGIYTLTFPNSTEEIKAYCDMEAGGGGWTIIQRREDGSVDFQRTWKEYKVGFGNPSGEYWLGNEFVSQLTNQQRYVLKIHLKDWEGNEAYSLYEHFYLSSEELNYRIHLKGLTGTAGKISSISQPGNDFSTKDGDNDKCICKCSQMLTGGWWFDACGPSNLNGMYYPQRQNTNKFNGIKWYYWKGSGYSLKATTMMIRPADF
Briefly: SPR, captured Ab, 37°C. On the procedure:
as §2

Experiment [6] deals with T6, Monomeric hAng-2FD (human, UniProt O15123 282-496).
T6 construct: also called fibrinogen-like domain of human Ang2; Human Ang-2FD
T6 sequence: T3 sequence
Briefly: SPR, captured Ab, 37°C. As for the experimental part: as §2

Experiment [7] deals with T5, wild-type human Ang-2 (hAng-2-WT). Kind of experiment: SPR, captured Ab.
Experiment [8] deals with T6, Monomeric hAng-2FD. Briefly: SPR, captured Ab.
Experiment [9] addresses T7, human bow-Ang-2 tetrameric construct (hBA2) (human).
T7 construct: also called human BA2; hBA2-hIgG1
Briefly: SPR, captured Ab.

Experiment [10] addresses T1, Dimeric Mouse Ang-2FD conjugated to …. Briefly: SPR, captured Ab, RT. Summed up: (§3)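 Antibody captured on amine-coupled goat anti-mouse IgG, anti-human κ or anti-human IgG polyclonal surfaces on a CM5 chip; antigen binding and dissociation followed in real time at room temperature. KD and complex dissociation half-life derived by kinetic analysis.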
Experiment [11] has as its target T2, Dimeric Monkey Ang-2FD conjugated to …. Kind of experiment: SPR, captured Ab, RT. Summed up:
as §3

Experiment [12] addresses T8, Dimeric Human Ang-2FD conjugated to human IgG1 (human).
T8 construct: also called Human Ang-2FD-hFc; hAng-2FD-hFc
Briefly: SPR, captured Ab, RT. Summed up: as §3

The target in experiment [13] is T4, Full-length wild-type human Ang-1 …. Kind of experiment: SPR, captured Ab, 25°C. On the procedure:
as §2

For experiment [14], the target named is T5, wild-type human Ang-2 (hAng-2-WT). Kind of experiment: SPR, captured Ab, 25°C. On the procedure: as §2
Experiment [15] deals with T6, Monomeric hAng-2FD. Briefly: SPR, captured Ab, 25°C. On the procedure:
as §2

For experiment [16], the target named is T1, Dimeric Mouse Ang-2FD conjugated to …. Briefly: SPR, captured Ab, 37°C. On the procedure:
as §1

Experiment [17] concerns the target T2, Dimeric Monkey Ang-2FD conjugated to …. Kind of experiment: SPR, captured Ab, 37°C. On the procedure: as §1
For experiment [18], the target named is T3, Dimeric Human Ang-2FD-mFc. Kind of experiment: SPR, captured Ab, 37°C. As for the experimental part:
as §1

For a further experiment, the target named is T9, Mouse Ang-2FD-hFc (mouse (Mus musculus)).
T9 construct: also called dimeric mouse Ang-2FD
Briefly: blocking ELISA, 16.67 nM antibody, Ang-2FD-hFc to coated hTie-2-mFc.

In another experiment the target is T10, Human Ang-2FD-hFc (human).
T10 construct: also called dimeric human Ang-2FD; human Ang-2FD protein conjugated to human IgG
The description is as above.

For the next experiment, the target named is T11, Biotin-hBA2 (human, biotinylated (sites not given)).
T11 construct: hBA2 consists of two dimers; also called biotinylated hBA2; human bow-Ang2
Briefly: blocking ELISA, biotin-hBA2 to hTie-2; NB = no blocking observed at 5 nM concentration. As for the experimental part:
The plate was then blocked with PBS (Irvine Scientific, Santa Ana, Calif.) containing 0.5% BSA (Sigma-Aldrich Corp., St. Louis, Mo.) for one hour at room temperature. […] Human, mouse or monkey Ang-2FD protein conjugated to human IgG (Ang-2FD-hFc) were added to final concentrations of 2 nM, 8 nM, or 2 nM respectively and incubated for one hour at room temperature. The antibody/Ang-2FD-Fc mixture was then added to the plate containing hTie-2-mFc and incubated for one hour at room temperature. Detection of Ang-2FD-hFc bound to hTie-2-mFc protein was determined with Horse-Radish Peroxidase (HRP) conjugated to a-human IgG antibody (Jackson Immuno Research Lab, West Grove, Pa.) and developed by standard colorimetric response using tetramethylbenzidine (TMB) substrate (BD Biosciences, San Jose, Calif.). Absorbance was read at OD₄₅₀ for 0.1 sec.
For this experiment, human Tie-2 conjugated to a histidine tag (hTie-2-His; SEQ ID NO:526) was used in a similar fashion to the hTie-2-mFc described above. Antibody concentrations from 5 nM were serially diluted three-fold. […] An average IC₅₀ value for each antibody was calculated based on two separate experiments.

T1 sequence (chain, as listed by the source limits assumed): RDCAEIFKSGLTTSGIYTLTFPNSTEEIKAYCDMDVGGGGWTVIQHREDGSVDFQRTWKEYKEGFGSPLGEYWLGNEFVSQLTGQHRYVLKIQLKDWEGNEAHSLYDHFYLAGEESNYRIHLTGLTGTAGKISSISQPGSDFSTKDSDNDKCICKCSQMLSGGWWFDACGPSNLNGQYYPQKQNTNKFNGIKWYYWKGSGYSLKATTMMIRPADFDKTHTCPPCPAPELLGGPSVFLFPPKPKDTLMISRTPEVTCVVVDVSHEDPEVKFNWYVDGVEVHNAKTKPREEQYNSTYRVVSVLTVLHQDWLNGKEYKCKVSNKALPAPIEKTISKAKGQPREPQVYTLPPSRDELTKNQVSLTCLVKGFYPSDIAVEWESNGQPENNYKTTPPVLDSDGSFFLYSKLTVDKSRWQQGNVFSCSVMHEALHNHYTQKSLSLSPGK
T2 sequence (chain, as listed by the source limits assumed): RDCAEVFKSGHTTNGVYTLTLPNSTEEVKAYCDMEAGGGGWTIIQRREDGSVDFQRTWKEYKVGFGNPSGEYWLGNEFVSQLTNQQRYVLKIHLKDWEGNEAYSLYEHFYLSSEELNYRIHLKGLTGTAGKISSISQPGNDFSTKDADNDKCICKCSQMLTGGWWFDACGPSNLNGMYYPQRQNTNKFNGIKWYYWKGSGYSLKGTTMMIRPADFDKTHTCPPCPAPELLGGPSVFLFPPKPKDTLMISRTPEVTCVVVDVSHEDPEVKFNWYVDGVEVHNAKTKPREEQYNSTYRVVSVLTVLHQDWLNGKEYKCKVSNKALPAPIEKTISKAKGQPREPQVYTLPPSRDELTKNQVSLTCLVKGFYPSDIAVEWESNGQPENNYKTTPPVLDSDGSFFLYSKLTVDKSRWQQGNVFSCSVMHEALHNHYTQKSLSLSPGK
T8 sequence (chain, as listed by the source limits assumed): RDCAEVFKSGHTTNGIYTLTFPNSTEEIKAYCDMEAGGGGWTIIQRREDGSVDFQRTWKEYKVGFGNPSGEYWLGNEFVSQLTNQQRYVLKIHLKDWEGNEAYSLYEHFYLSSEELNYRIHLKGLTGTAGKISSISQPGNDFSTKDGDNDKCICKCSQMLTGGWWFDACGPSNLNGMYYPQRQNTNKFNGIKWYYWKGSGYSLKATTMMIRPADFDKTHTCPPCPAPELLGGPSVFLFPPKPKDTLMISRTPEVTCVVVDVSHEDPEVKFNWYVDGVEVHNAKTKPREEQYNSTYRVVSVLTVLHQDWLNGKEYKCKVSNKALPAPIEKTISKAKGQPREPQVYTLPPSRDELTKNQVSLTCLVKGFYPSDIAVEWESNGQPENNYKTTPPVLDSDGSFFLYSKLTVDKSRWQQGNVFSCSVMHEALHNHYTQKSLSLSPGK
T7 sequence (chain, as listed by the source limits assumed): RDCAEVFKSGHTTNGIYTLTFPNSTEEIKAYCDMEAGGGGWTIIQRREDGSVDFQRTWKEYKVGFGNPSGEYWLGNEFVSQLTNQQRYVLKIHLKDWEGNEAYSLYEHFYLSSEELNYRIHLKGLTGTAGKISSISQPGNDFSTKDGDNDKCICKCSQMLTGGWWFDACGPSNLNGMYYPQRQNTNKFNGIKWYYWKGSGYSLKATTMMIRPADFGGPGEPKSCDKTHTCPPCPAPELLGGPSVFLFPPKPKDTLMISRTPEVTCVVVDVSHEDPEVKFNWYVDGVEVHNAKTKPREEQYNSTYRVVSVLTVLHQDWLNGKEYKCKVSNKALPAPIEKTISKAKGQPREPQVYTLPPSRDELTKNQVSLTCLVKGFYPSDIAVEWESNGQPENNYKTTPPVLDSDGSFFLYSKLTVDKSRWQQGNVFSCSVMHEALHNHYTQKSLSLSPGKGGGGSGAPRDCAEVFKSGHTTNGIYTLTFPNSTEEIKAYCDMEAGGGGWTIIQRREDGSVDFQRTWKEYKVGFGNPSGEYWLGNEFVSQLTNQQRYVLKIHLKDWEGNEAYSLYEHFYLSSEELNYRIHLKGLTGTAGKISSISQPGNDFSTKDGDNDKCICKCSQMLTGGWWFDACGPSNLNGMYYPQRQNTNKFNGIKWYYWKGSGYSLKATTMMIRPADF

B1: H1H744N (antibody, V domains shown)
VH: QVQLVQSGVEVKKPGASVKVSCKTSGYTFSNNGFSWVRQAPGQGLEWLGWISGYNGNTNYAQKFQGRVTMTTDTSTSTAYMELRTLRSDDTAVYYCARDQDYSNFHWLDPWGQGTLVTVAS
VL: DIQMTQSPSSVSASVGDRVIITCRASQGLSSWLAWYQQKPGTAPKLLIHSASSLQTGVPSRFSGSGSGTEFALTINSLQPEDFGTYYCQQANSFPLTFGGGTRVEIK
A word on the Kd: it is the concentration at which binding is half-saturated. For the molecule B1, the Kd in experiment [1] was 0.385 nM; in experiment [2] it was 0.244 nM; in experiment [3] it was 0.116 nM; in experiment [4] it was 0.0312 nM; in experiment [5] it was 0.347 nM; in the experiment with Monomeric hAng-2FD [6], 1.42 nM. The Kd in experiment [7] was 0.0308 nM; with Monomeric hAng-2FD [8], 1.02 nM; in experiment [9], 0.0172 nM; in experiment [11], 0.346 nM; in [12], 0.114 nM; in experiment [13], 0.093 nM. The Kd in experiment [14] was 0.0335 nM; with Monomeric hAng-2FD [15], 0.424 nM; in experiment [16] it was 0.215 nM; in [17], 0.32 nM; in experiment [18], 0.105 nM. Besides, the T1/2 in [1] came to 0.55 h; in experiment [2], 0.4 h; in [3], 0.383 h; in experiment [7], 13.9 h; in the experiment with Monomeric hAng-2FD [8] it was 0.702 h; in [9] it was 7.37 h. The T1/2 in experiment [10] amounted to 1.92 h; in [11], 2.73 h; in [12], 2.12 h; in [16], 0.433 h; in [17], 0.183 h; in experiment [18] it was 0.3 h. Further, the T ½ in experiment [4] is 3.7 h; in experiment [5], 0.8 h; in the experiment with Monomeric hAng-2FD [6] it was 0.35 h; in experiment [13], 5.05 h; in experiment [14] it was 7.5 h; with Monomeric hAng-2FD [15], 1.55 h.

B2: H1H693P (antibody, human IgG1, V domains shown)
VH: EVQLVESGGGLVQPGESLRLSCAASGFTFSSYAMSWVRQGPGKGLEWVSSISGSGGTTYYADSVEGRFTISRDNSKNTLYLHMNSLRAEDTAVYYCAKDFLDYSTYLAFDLWGQGTMVTVSS
VL: DIQMTQSPSSVSASVGDRVTITCRASQGISSWLAWYQQKPGKAPKLLIYAASSLQSGVPSRFSGSGSGTDFTLTISSLQPEDFATYYCQQANSFPRTFGQGTKVEIK
notes: Human IgG1
By IC50 is commonly meant the concentration that gives 50% inhibition. For B2, the “Percent Blocking of Ang-2FD Binding to Tie-2” value with Mouse Ang-2FD-hFc is 63.6%; in the experiment with Human Ang-2FD-hFc, 73.9%. The IC50 in the experiment with Biotin-hBA2 is above 5 nM.
